Data reported in paper PMC5526573, “Bacillus sp. JR3 esterase LipJ: A new mesophilic enzyme showing traces of a thermophilic past” (PLoS ONE, 2017).

Tested on: CCCC(=O)Oc1ccc([N+](=O)[O-])cc1
Test: purified protein
Conditions: 37 °C, semi-purified His-tagged enzyme, methods state optimal assay conditions (pH 7)

Substance LipJ (Bacillus sp. (in: firmicutes)) has a Km of 1700 µM.
